According to paper PMC11052993, “Functional implication of the homotrimeric multidomain vacuolar sorting receptor 1 (VSR1) from Arabidopsis thaliana” (Scientific Reports, 2024):

Target: the molecule itself
Assay: crystal structure; space group P2(1)3, one molecule in the asymmetric unit, trimer built by crystallographic three-fold symmetry; 3.5 Å dataset, molecular replacement with PDB 4TJV

B1: luminal domain of vacuolar sorting receptor 1 (VSR1) from Arabidopsis thaliana, residues 1 to 560 (domain or fragment, UniProt P93026 23-560, looked up)
chain: VEKNNLKVTSPDSIKGIYECAIGNFGVPQYGGTLVGTVVYPKSNQKACKSYSDFDISFKSKPGRLPTFVLIDRGDCYFTLKAWIAQQAGAAAILVADSKAEPLITMDTPEEDKSDADYLQNITIPSALITKTLGDSIKSALSGGDMVNMKLDWTESVPHPDERVEYELWTNSNDECGKKCDTQIEFLKNFKGAAQILEKGGHTQFTPHYITWYCPEAFTLSKQCKSQCINHGRYCAPDPEQDFTKGYDGKDVVVQNLRQACVYRVMNDTGKPWVWWDYVTDFAIRCPMKEKKYTKECADGIIKSLGIDLKKVDKCIGDPEADVENPVLKAEQESQIGKGSRGDVTILPTLVVNNRQYRGKLEKGAVLKAMCSGFQESTEPAICLTEDLETNECLENNGGCWQDKAANITACRDTFRGRLCECPTVQGVKFVGDGYTHCKASGALHCGINNGGCWRESRGGFTYSACVDDHSKDCKCPLGFKGDGVKNCEDVDECKEKTVCQCPECKCKNTWGSYECSCSNGLLYMREHDTCIGSGKVG
modifications: N-glycosylation at Asn289 (two N-acetylglucosamine)
notes: signal peptide in the construct; vacuolar sorting receptor 1 (VSR1), Arabidopsis thaliana, luminal part, residues 1 to 560; the model of the structure runs from Phe21 to Ala465 (Ser120-Asp137 disordered); Trimer by crystallographic three-fold symmetry; one molecule in the asymmetric unit; also called AtVSR1; full-length VSR1 luminal domain
stoichiometry N: 3
